Laboratory results taken from publication PMC5727935, “The distinctive cell division interactome of Neisseria gonorrhoeae” (BMC Microbiology, 2017).

Key:
[1] = biological target: N. gonorrhoeae FtsK, bacterial two-hybrid fusion (Neisseria gonorrhoeae CH811); test: two-hybrid; bacterial two-hybrid (Di Lallo): fusions to P22 and 434 repressor ends in E. coli R721, 34 °C; residual β-galactosidase activity against R721 without plasmids (2504 ± 34 Miller units); less than 50% counts as a positive interaction
[2] = biological target: N. gonorrhoeae FtsW, bacterial two-hybrid fusion (Neisseria gonorrhoeae CH811) (UniProt B4RQC6); test: as above
[3] = biological target: T1, N. gonorrhoeae FtsW, bacterial two-hybrid fusion (Neisseria gonorrhoeae CH811, UniProt B4RQC6 1-462); test: as above; settings: partners not purified
T1 construct: FtsW of Neisseria gonorrhoeae CH811, amplified from genomic DNA with primers P9/P10 (start codon to stop codon); Cloned in both vectors (pcIp22 and pcI434); each fusion carries one of the two repressor ends; also called FtsWNg; pcIp22-W; source: bacterial two-hybrid fusion, expressed in E. coli R721
T1 sequence (looked up): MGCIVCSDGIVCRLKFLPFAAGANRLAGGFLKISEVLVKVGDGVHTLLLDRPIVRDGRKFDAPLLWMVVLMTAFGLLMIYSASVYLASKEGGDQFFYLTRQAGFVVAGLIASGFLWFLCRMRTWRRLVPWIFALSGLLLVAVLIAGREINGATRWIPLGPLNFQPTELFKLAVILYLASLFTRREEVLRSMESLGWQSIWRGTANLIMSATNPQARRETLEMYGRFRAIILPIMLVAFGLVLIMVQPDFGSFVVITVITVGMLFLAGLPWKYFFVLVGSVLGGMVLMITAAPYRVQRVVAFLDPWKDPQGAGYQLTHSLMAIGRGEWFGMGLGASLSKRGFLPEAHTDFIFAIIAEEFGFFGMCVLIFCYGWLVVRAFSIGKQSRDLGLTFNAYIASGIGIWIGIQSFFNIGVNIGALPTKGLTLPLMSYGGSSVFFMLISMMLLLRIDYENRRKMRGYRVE

[4] = biological target: T2, N. gonorrhoeae FtsQ, bacterial two-hybrid fusion (Neisseria gonorrhoeae CH811, UniProt Q5F6M1 1-242); test: as above; settings: partners not purified
T2 construct: FtsQ of Neisseria gonorrhoeae CH811, amplified from genomic DNA with primers P5/P6 (start codon to stop codon); Cloned in both vectors (pcIp22 and pcI434); each fusion carries one of the two repressor ends; also called FtsQNg; pcIp22-Q; source: bacterial two-hybrid fusion, expressed in E. coli R721
T2 sequence (looked up): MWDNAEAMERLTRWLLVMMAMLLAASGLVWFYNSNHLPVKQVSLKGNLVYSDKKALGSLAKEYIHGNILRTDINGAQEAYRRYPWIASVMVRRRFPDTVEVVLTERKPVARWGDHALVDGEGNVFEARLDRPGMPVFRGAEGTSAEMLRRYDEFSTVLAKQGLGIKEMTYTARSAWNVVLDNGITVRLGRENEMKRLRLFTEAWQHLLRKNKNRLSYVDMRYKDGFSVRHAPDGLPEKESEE

[5] = biological target: N. gonorrhoeae FtsZ, bacterial two-hybrid fusion (Neisseria gonorrhoeae) (UniProt P72079); test: as above
[6] = biological target: N. gonorrhoeae FtsN, bacterial two-hybrid fusion (Neisseria gonorrhoeae CH811); test: as above
[7] = biological target: His-FtsNNg (ligand of the SPR) (Neisseria gonorrhoeae); test: SPR; Bio-Rad XPR36, ProteOn HTE chip activated with NiSO4; His-FtsQNg or His-FtsNNg immobilised at 200 nM; two-fold dilutions of FtsANg in PBST (0.1% BSA, 0.05% Tween-20, pH 7.9), 30 μl/min, 120 s, then 300 s buffer; Langmuir 1:1 kinetic fit
[8] = biological target: T3, FtsANg (analyte of the SPR with FtsQNg and FtsNNg) (Neisseria gonorrhoeae CH811, UniProt Q5F6M2 1-414); test: as above; settings: both partners purified
T3 construct: FtsA of Neisseria gonorrhoeae CH811; GST in PBST as the negative-control analyte hints at GST-FtsANg (surmise); source: E. coli C41 (DE3), purified
T3 sequence (looked up): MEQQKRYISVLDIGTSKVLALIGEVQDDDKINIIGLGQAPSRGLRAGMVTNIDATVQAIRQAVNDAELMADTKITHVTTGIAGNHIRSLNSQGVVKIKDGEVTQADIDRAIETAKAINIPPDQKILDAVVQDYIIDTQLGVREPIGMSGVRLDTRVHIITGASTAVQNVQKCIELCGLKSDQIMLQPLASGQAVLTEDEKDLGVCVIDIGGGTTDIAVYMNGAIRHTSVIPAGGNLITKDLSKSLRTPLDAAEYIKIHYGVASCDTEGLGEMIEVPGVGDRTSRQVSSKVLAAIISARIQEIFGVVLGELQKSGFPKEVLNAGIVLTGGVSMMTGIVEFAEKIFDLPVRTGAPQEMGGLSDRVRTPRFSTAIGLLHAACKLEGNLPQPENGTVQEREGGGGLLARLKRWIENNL

[9] = biological target: His-FtsANg (Neisseria gonorrhoeae CH811) (UniProt Q5F6M2); test: SPR; FtsANg immobilised on the HTE chip; polymerized FtsZNg (with GTP) at 6 and 12 μM injected for 120 s, 300 s dissociation; MES buffer with 0.1% BSA, 0.05% Tween-20, 1 mM ATP, pH 7.5; Langmuir 1:1 kinetic fit
[10] = biological target: the molecule itself; test: 90° light scattering + negative-stain electron microscopy; FtsZNg about 6 μM in MES buffer (50 mM MES-NaOH, 50 mM KCl, 10 mM MgCl2, pH 7.5), 2 mM GTP, 30 °C; polymerisation

N. gonorrhoeae FtsN, bacterial two-hybrid fusion (natural protein)
residual β-galactosidase activity [1]: 31%

N. gonorrhoeae FtsI, bacterial two-hybrid fusion (natural protein)
residual β-galactosidase activity [2]: 35%

B1: N. gonorrhoeae FtsA, bacterial two-hybrid fusion (natural protein, Neisseria gonorrhoeae CH811, UniProt Q5F6M2 1-414, looked up)
chain: T3 sequence (looked up)
notes: FtsA of Neisseria gonorrhoeae CH811, amplified from genomic DNA with primers P1/P2 (start codon to stop codon); ends at Leu414 by the limits of the truncations; Cloned in both vectors (pcIp22 and pcI434); each fusion carries one of the two repressor ends; also called FtsANg; pcIp22-A; source: bacterial two-hybrid fusion, expressed in E. coli R721
residual β-galactosidase activity [3]: 45%
residual β-galactosidase activity [4]: 48%
residual β-galactosidase activity [5]: 40%
residual β-galactosidase activity [1]: 30%
residual β-galactosidase activity [6]: 24%

B2: FtsANg (analyte of the SPR with FtsQNg and FtsNNg) (natural protein)
chain: T3 sequence (looked up)
Kd [7]: 53.3 nM
koff [7]: 0.00616 s⁻¹
kon [7]: 115000 M⁻¹ s⁻¹

B3: His-FtsQNg (natural protein, Neisseria gonorrhoeae CH811, UniProt Q5F6M1 1-242, looked up)
chain: T2 sequence (looked up)
notes: FtsQ of Neisseria gonorrhoeae CH811, full-length ftsQ (primers P17/P18) cloned BglII/EcoRI into pET30a; also called pETQ
Kd [8]: 15.1 nM
koff [8]: 0.00409 s⁻¹
kon [8]: 272000 M⁻¹ s⁻¹

B4: FtsZNg, His tag cleaved with thrombin (natural protein, Neisseria gonorrhoeae CH811, UniProt P72079 1-392, looked up)
chain: MEFVYDVAESAVSPAVIKVIGLGGGGCNAINNMVANNVRSVEFISANTDAQSLAKNHAAKRIQLGTNLTRGLGAGANPDIGRAAAQEDREAIEEAIRGANMLFITTGMGGGTGTGSAPVVAEIAKSLGILTVAVVTRPFSYEGKRVHVAQAGLEQLKEHVDSLIIIPNDKLMTALGEDVTMREAFRAADNVLRDAVAGISEVVTCPSEIINLDFADVKTVMSNRGIAMMGSGYAQGIDRARMATDQAISSPLLDDVTLDGARGVLVNITTAPGCLKMSELSEVMKIVNQSAHPDLECKFGAAEDETMSEDAIRITIIATGLKEKGAVDPTPEREVEAVAPSKQEQSHIVEGMIRTNRGIRTMNLTAADFDNQSVLDDFEIPAILRRQHNSDK
notes: FtsZ of Neisseria gonorrhoeae CH811, full-length ftsZ (primers P19/P20) cloned BglII/EcoRI into pET30a; also called polymerized FtsZNg; not shown: His6, N-terminal, cleaved
Kd [9]: 14900 nM
koff [9]: 0.00531 s⁻¹
kon [9]: 356 M⁻¹ s⁻¹
binding result [10]: binds

B5: N. gonorrhoeae FtsZ, bacterial two-hybrid fusion (natural protein, Neisseria gonorrhoeae, UniProt P72079 1-392, looked up)
chain: B4 chain
notes: FtsZ of Neisseria gonorrhoeae; Cloned in both vectors (pcIp22 and pcI434); each fusion carries one of the two repressor ends; also called FtsZNg; pcIp22-Z; source: bacterial two-hybrid fusion, expressed in E. coli R721
residual β-galactosidase activity [3]: 39%
residual β-galactosidase activity [1]: 41%
